The record followed here is FireProtDB (doi:10.1021/bi00116a007).

The chains are these.
B1: Aspartate aminotransferase, P00509 (parent)
chain: MFENITAAPADPILGLADLFRADERPGKINLGIGVYKDETGKTPVLTSVKKAEQYLLENETTKNYLGIDGIPEFGRCTQELLFGKGSALINDKRARTAQTPGGTGALRVAADFLAKNTSVKRVWVSNPSWPNHKSVFNSAGLEVREYAYYDAENHTLDFDALINSLNEAQAGDVVLFHGCCHNPTGIDPTLEQWQTLAQLSVEKGWLPLFDFAYQGFARGLEEDAEGLRAFAAMHKELIVASSYSKNFGLYNERVGACTLVAADSETVDRAFSQMKAAIRANYSNPPAHGASVVATILSNDALRAIWEQELTDMRQRIQRMRQLFVNTLQEKGANRDFSFIIKQNGMFSFSGLTKEQVLRLREEFGVYAVASGRVNVAGMTPDNMAPLCEAIVAVL

In the data set the parent is B1. As to conditions: Escherichia coli (strain K12); pH 7.5; 25 °C; Urea; DSC; potassium-HEPES 40 mM; reversible: yes; structure 1AMQ; whole UniProt chain shown.

Turning to C77A C180A C181A C258A C389A, the “ddG of mutation (higher = less stable)” value was 1 kcal/mol, the denaturant m value was 2.83 kcal/mol/M, the “denaturant midpoint (higher = more stable)” value is 3.16 M and the unfolding free energy is 8.92 kcal/mol.
On the same counts, the results for C180A are 2.2 kcal/mol, 2 kcal/mol/M, 3.87 M and 7.74 kcal/mol.
On the same counts, the results for C180S are 1.8 kcal/mol, 2.38 kcal/mol/M, 3.41 M and 8.12 kcal/mol.
On the same counts, the results for C258A are 2.5 kcal/mol, 2.14 kcal/mol/M, 3.51 M and 7.5 kcal/mol.
Turning to C389A, the “ddG of mutation (higher = less stable)” value is -3.2 kcal/mol, the denaturant m value was 3.87 kcal/mol/M, the “denaturant midpoint (higher = more stable)” value worked out at 3.41 M and the unfolding free energy worked out at 13.2 kcal/mol.
On the same counts, the results for C181A are 1.6 kcal/mol, 2.35 kcal/mol/M, 3.53 M and 8.32 kcal/mol.
For C77A, in that order: 1.3 kcal/mol, 2.13 kcal/mol/M, 4.06 M and 8.67 kcal/mol.
